Data set [1] concerns the target T1, full-length human PrimPol (recombinant) (human, UniProt Q96LW4 1-560).
T1 construct: also called wild-type PrimPol
T1 sequence (looked up): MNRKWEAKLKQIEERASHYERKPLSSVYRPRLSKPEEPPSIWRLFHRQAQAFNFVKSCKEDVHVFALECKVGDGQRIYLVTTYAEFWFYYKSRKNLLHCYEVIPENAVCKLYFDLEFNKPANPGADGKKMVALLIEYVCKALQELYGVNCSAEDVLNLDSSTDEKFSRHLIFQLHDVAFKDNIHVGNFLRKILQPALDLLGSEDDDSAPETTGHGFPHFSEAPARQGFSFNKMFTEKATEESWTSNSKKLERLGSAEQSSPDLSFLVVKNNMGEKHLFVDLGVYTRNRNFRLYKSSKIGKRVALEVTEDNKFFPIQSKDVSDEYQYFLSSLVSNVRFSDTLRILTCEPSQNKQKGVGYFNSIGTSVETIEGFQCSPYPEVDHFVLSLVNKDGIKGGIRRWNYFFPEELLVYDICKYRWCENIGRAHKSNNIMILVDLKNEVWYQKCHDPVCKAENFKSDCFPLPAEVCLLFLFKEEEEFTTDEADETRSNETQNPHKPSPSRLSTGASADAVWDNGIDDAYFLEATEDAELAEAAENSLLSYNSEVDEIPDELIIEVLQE
Put plainly: NMR titration; 15N-1H HSQC of 15N-enriched RPA domain (50 uM RPA70N) alone and with 2-fold molar excess (100 uM) of unlabelled PrimPol construct; 25°C; 20 mM HEPES, 80 mM NaCl, 2 mM DTT, 5% deuterium oxide, pH 7.1. The settings on record: both partners purified.

Data set [2] has as its target T2, mtSSB (human, UniProt Q04837 17-148).
T2 sequence: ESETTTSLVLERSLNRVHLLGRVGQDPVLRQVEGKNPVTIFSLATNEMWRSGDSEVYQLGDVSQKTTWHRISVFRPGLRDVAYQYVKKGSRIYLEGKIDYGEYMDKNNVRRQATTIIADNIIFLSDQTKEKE
Briefly: EMSA; 10 mM Mg acetate; full shift at less than half the amount needed for RPA; super-shifted bands = multiple SSBs bound; EMSA: 50 mM K acetate, 20 mM Tris-acetate pH 7.9, 10 mM Mg acetate, 1 mM DTT, 60 nM FAM-ssDNA, 60 min at room temperature; 5% native PAGE in 0.5x TBE. To be noted: protein: recombinant; chain copies: 4; label: 5'-FAM (fluorescein); single strand. For orientation: Mobility shift assays separate free from complexed probe on a gel.

The target of data set [3] is RPA (replication protein A) (human, UniProt P27694;P15927;P35244 1-616;1-270;1-121). Put plainly: EMSA; 10 mM Mg acetate; SSB/oligo 0-16; more than twice as much RPA as mtSSB needed to fully shift; super-shifted bands = multiple SSBs bound; EMSA: 50 mM K acetate, 20 mM Tris-acetate pH 7.9, 10 mM Mg acetate, 1 mM DTT, 60 nM FAM-ssDNA, 60 min at room temperature; 5% native PAGE in 0.5x TBE. The settings on record: protein: recombinant; copies: 1;1;1; label: 5'-FAM (fluorescein); single strand.
RPA (replication protein A), sequence (P15927 whole entry, chain 2 of 2): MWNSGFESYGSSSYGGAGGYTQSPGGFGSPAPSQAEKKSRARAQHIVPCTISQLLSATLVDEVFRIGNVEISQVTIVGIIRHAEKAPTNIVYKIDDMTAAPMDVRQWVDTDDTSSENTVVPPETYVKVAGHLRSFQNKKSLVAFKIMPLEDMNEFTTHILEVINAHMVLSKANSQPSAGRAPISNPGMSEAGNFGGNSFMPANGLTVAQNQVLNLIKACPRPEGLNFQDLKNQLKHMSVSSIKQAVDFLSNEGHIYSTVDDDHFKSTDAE
RPA (replication protein A), sequence (P35244 whole entry, chain 3 of 2): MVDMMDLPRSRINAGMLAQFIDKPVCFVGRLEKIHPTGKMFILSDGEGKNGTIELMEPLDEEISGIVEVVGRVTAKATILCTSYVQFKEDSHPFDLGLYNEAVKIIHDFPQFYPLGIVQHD

B1: RPA70N^1–120 (DBD-N of RPA1, N-terminal domain of RPA70) (domain or fragment, human, UniProt P27694 1-120, looked up)
chain: MVGQLSEGAIAAIMQKGDTNIKPILQVINIRPITTGNSPPRYRLLMSDGLNTLSSFMLATQLNPLVEEEQLSSNCVCQIHRFIVNTLKDGRRVVILMELEVLKSAEAVGVKIGNPVPYNE
modifications: 15N-enriched
notes: RPA70 (RPA1) residues 1-120, N-terminal protein recruitment domain
On to B1, for which, in data set [1], the binding result is reported as “binds”.

B2: ND-50 ssDNA Template (sequence 16) (ssDNA)
DNA: CGCGCAGGGCGCACAACAGCCTTGAAGACCGAACGACCGAACAGACGACA
Turning to B2, the binding result in data set [2] and in data set [3] was “binds” in each case.

Source of the values: paper PMC4333378, “Human PrimPol is a highly error-prone polymerase regulated by single-stranded DNA binding proteins” (Nucleic Acids Research, 2014).
